# Results from patent US20090099029.
# B1: ABL2(ARG) (protein)
# chain: MGQQVGRVGEAPGLQQPQPRGIRGSSAARPSGRRRDPAGRTTETGFNIFTQHDHFASCVEDGFEGDKTGGSSPEALHRPYGCDVEPQALNEAIRWSSKENLLGATESDPNLFVALYDFVASGDNTLSITKGEKLRVLGYNQNGEWSEVRSKNGQGWVPSNYITPVNSLEKHSWYHGPVSRSAAEYLLSSLINGSFLVRESESSPGQLSISLRYEGRVYHYRINTTADGKVYVTAESRFSTLAELVHHHSTVADGLVTTLHYPAPKCNKPTVYGVSPIHDKWEMERTDITMKHKLGGGQYGEVYVGVWKKYSLTVAVKTLKEDTMEVEEFLKEAAVMKEIKHPNLVQLLGVCTLEPPFYIVTEYMPYGNLLDYLRECNREEVTAVVLLYMATQISSAMEYLEKKNFIHRDLAARNCLVGENHVVKVADFGLSRLMTGDTYTAHAGAKFPIKWTAPESLAYNTFSIKSDVWAFGVLLWEIATYGMSPYPGIDLSQVYDLLEKGYRMEQPEGCPPKVYELMRACWKWSPADRPSFAETHQAFETMFHDSSISEEVAEELGRAASSSSVVPYLPRLPILPSKTRTLKKQVENKENIEGAQDATENSASSLAPGFIRGAQASSGSPALPRKQRDKSPSSLLEDAKETCFTRDRKGGFFSSFMKKRNAPTPPKRSSSFREMENQPHKKYELTGNFSSVASLQHADGFSFTPAQQEANLVPPKCYGGSFAQRNLCNDDGGGGGGSGTAGGGWSGITGFFTPRLIKKTLGLRAGKPTASDDTSKPFPRSNSTSSMSSGLPEQDRMAMTLPRNCQRSKLQLERTVSTSSQPEENVDRANDMLPKKSEESAAPSRERPKAKLLPRGATALPLRTPSGDLAITEKDPPGVGVAGVAAAPKGKEKNGGARLGMAGVPEDGEQPGWPSPAKAAPVLPTTHNHKVPVLISPTLKHTPADVQLIGTDSQGNKFKLLSEHQVTSSGDKDRPRRVKPKCAPPPPPVMRLLQHPSICSDPTEEPTALTAGQSTSETQEGGKKAALGAVPISGKAGRPVMPPPQVPLPTSSISPAKMANGTAGTKVALRKTKQAAEKISADKISKEALLECADLLSSALTEPVPNSQLVDTGHQLLDYCSGYVDCIPQTRNKFAFREAVSKLELSLQELQVSSAAAGVPGTNPVLNNLLSCVQEISDVVQR
# B2: FER (protein)
# chain: KSGVVLLNPIPKDKKWILSHEDVILGELLGKGNFGEVYKGTLKDKTSVAVKTCKEDLPQELKIKFLQEAKILKQYDHPNIVKLIGVCTQRQPVYIIMELVSGGDFLTFLRRKKDELKLKQLVKFSLDAAAGMLYLESKNCIHRDLAARNCLVGENNVLKISDFGMSRQEDGGVYSSSGLKQIPIKWTAPEALNYGRYSSESDVWSFGILLWETFSLGVCPYPGMTNQQAREQVERGYRMSAPQHCPEDISKIMMKCWDYKPENRPKFSELQKELTIIKRKLT
# B3: LYNA (protein)
# chain: MGCIKSKGKDSLSDDGVDLKTQPVRNTERTIYVRDPTSNKQQRPVPESQLLPGQRFQTKDPEEQGDIVVALYPYDGIHPDDLSFKKGEKMKVLEEHGEWWKAKSLLTKKEGFIPSNYVAKLNTLETEEWFFKDITRKDAERQLLAPGNSAGAFLIRESETLKGSFSLSVRDFDPVHGDVIKHYKIRSLDNGGYYISPRITFPCISDMIKHYQKQADGLCRRLEKACISPKPQKPWDKDAWEIPRESIKLVKRLGAGQFGEVWMGYYNNSTKVAVKTLKPGTMSVQAFLEEANLMKTLQHDKLVRLYAVVTREEPIYIITEYMAKGSLLDFLKSDEGGKVLLPKLIDFSAQIAEGMAYIERKNYIHRDLRAANVLVSESLMCKIADFGLARVIEDNEYTAREGAKFPIKWTAPEAINFGCFTIKSDVWSFGILLYEIVTYGKIPYPGRTNADVMTALSQGYRMPRVENCPDELYDIMKMCWKEKAEERPTFDYLQSVLDDFYTATEGQYQQQP
# B4: BTK (protein)
# chain: MAAVILESIFLKRSQQKKKTSPLNFKKRLFLLTVHKLSYYEYDFERGRRGSKKGSIDVEKITCVETVVPEKNPPPERQIPRRGEESSEMEQISIIERFPYPFQVVYDEGPLYVFSPTEELRKRWIHQLKNVIRYNSDLVQKYHPCFWIDGQYLCCSQTAKNAMGCQILENRNGSLKPGSSHRKTKKPLPPTPEEDQILKKPLPPEPAAAPVSTSELKKVVALYDYMPMNANDLQLRKGDEYFILEESNLPWWRARDKNGQEGYIPSNYVTEAEDSIEMYEWYSKHMTRSQAEQLLKQEGKEGGFIVRDSSKAGKYTVSVFAKSTGDPQGVIRHYVVCSTPQSQYYLAEKHLFSTIPELINYHQHNSAGLISRLKYPVSQQNKNAPSTAGLGYGSWEIDPKDLTFLKELGTGQFGVVKYGKWRGQYDVAIKMIKEGSMSEDEFIEEAKVMMNLSHEKLVQLYGVCTKQRPIFIITEYMANGCLLNYLREMRHRFQTQQLLEMCKDVCEAMEYLESKQFLHRDLAARNCLVNDQGVVKVSDFGLSRYVLDDEYTSSVGSKFPVRWSPPEVLMYSKFSSKSDIWAFGVLMWEIYSLGKMPYERFTNSETAEHIAQGLRLYRPHLASEKVYTIMYSCWHEKADERPTFKILLSNILDVMDEES
# B5: MATK(HYL) (protein)
# chain: MQGHFPAERREGRPRRGTRGQQQLLVSPRFLRAWHPPPVSARMPTRRWAPGTQCITKCEHTRPKPGELAFRKGDVVTILEACENKSWYRVKHHTSGQEGLLAAGALREREALSADPKLSLMPWFHGKISGQEAVQQLQPPEDGLFLVRESARHPGDYVLCVSFGRDVIHYRVLHRDGHLTIDEAVFFCNLMDMVEHYSKDKGAICTKLVRPKRKHGTKSAEEELARAGWLLNLQHLTLGAQIGEGEFGAVLQGEYLGQKVAVKNIKCDVTAQAFLDETAVMTKMQHENLVRLLGVILHQGLYIVMEHVSKGNLVNFLRTRGRALVNTAQLLQFSLHVAEGMEYLESKKLVHRDLAARNILVSEDLVAKVSDFGLAKAERKGLDSSRLPVKWTAPEALKHGKFTSKSDVWSFGVLLWEVFSYGRAPYPKMSLKEVSEAVEKGYRMEPPEGCPGPVHVLMSSCWEAEPARRPPFRKLAEKLARELRSAGAPASVSGQDADGSTSPRSQEP
# B6: JAK3 (protein)
# chain: ISSDYELLSDPTPGALAPRDGLWNGAQLYACQDPTIFEERHLKYISQLGKGNFGSVELCRYDPLGDNTGALVAVKQLQHSGPDQQRDFQREIQILKALHSDFIVKYRGVSYGPGRQSLRLVMEYLPSGCLRDFLQRHRARLDASRLLLYSSQICKGMEYLGSRRCVHRDLAARNILVESEAHVKIADFGLAKLLPLDKDYYVVREPGQSPIFWYAPESLSDNIFSRQSDVWSFGVVLYELFTYCDKSCSPSAEFLRMMGCERDVPALCRLLELLEEGQRLPAPPACPAEVHELMKLCWAPSPQDRPSFSALGPQLDMLWSGSRGCETHAFTAHPEGKHHSLSFS
# B7: BMX (protein)
# chain: MDTKSILEELLLKRSQQKKKMSPNNYKERLFVLTKTNLSYYEYDKMKRGSRKGSIEIKKIRCVEKVNLEEQTPVERQYPFQIVYKDGLLYVYASNEESRSQWLKALQKEIRGNPHLLVKYHSGFFVDGKFLCCQQSCKAAPGCTLWEAYANLHTAVNEEKHRVPTFPDRVLKIPRAVPVLKMDAPSSSTTLAQYDNESKKNYGSQPPSSSTSLAQYDSNSKKIYGSQPNFNMQYIPREDFPDWWQVRKLKSSSSSEDVASSNQKERNVNHTTSKISWEFPESSSSEEEENLDDYDWFAGNISRSQSEQLLRQKGKEGAFMVRNSSQVGMYTVSLFSKAVNDKKGTVKHYHVHTNAENKLYLAENYCFDSIPKLIHYHQHNSAGMITRLRHPVSTKANKVPDSVSLGNGIWELKREEITLLKELGSGQFGVVQLGKWKGQYDVAVKMIKEGSMSEDEFFQEAQTMMKLSHPKLVKFYGVCSKEYPIYIVTEYISNGCLLNYLRSHGKGLEPSQLLEMCYDVCEGMAFLESHQFIHRDLAARNCLVDRDLCVKVSDFGMTRYVLDDQYVSSVGTKFPVKWSAPEVFHYFKYSSKSDVWAFGILMWEVFSLGKQPYDLYDNSQVVLKVSQGHRLYRPHLASDTIYQIMYSCWHELPEKRPTFQQLLSSIEPLREKDKH
# B8: CSK (protein)
# chain: MSAIQAAWPSGTECIAKYNFHGTAEQDLPFCKGDVLTIVAVTKDPNWYKAKNKVGREGIIPANYVQKREGVKAGTKLSLMPWFHGKITREQAERLLYPPETGLFLVRESTNYPGDYTLCVSCDGKVEHYRIMYHASKLSIDEEVYFENLMQLVEHYTSDADGLCTRLIKPKVMEGTVAAQDEFYRSGWALNMKELKLLQTIGKGEFGDVMLGDYRGNKVAVKCIKNDATAQAFLAEASVMTQLRHSNLVQLLGVIVEEKGGLYIVTEYMAKGSLVDYLRSRGRSVLGGDCLLKFSLDVCEAMEYLEGNNFVHRDLAARNVLVSEDNVAKVSDFGLTKEASSTQDTGKLPVKWTAPEALREKKFSTKSDVWSFGILLWEIYSFGRVPYPRIPLKDVVPRVEKGYKMDAPDGCPPAVYEVMKNCWHLDAAMRPSFLQLREQLEHIKTHELHL
# B9: FES (protein)
# chain: MGFSSELCSPQGHGVLQQMQEAELRLLEGMRKWMAQRVKSDREYAGLLHHMSLQDSGGQSRAISPDSPISQSWAEITSQTEGLSRLLRQHAEDLNSGPLSKLSLLIRERQQLRKTYSEQWQQLQQELTKTHSQDIEKLKSQYRALARDSAQAKRKYQEASKDKDRDKAKDKYVRSLWKLFAHHNRYVLGVRAAQLHHQHHHQLLLPGLLRSLQDLHEEMACILKEILQEYLEISSLVQDEVVAIHREMAAAAARIQPEAEYQGFLRQYGSAPDVPPCVTFDESLLEEGEPLEPGELQLNELTVESVQHTLTSVTDELAVATEMVFRRQEMVTQLQQELRNEEENTHPRERVQLLGKRQVLQEALQGLQVALCSQAKLQAQQELLQTKLEHLGPGEPPPVLLLQDDRHSTSSSEQEREGGRTPTLEILKSHISGIFRPKFSLPPPLQLIPEVQKPLHEQLWYHGAIPRAEVAELLVHSGDFLVRESQGKQEYVLSVLWDGLPRHFIIQSLDNLYRLEGEGFPSIPLLIDHLLSTQQPLTKKSGVVLHRAVPKDKWVLNHEDLVLGEQIGRGNFGEVFSGRLRADNTLVAVKSCRETLPPDLKAKFLQEARILKQYSHPNIVRLIGVCTQKQPIYIVMELVQGGDFLTFLRTEGARLRVKTLLQMVGDAAAGMEYLESKCCIHRDLAARNCLVTEKNVLKISDFGMSREEADGVYAASGGLRQVPVKWTAPEALNYGRYSSESDVWSFGILLWETFSLGASPYPNLSNQQTREFVEKGGRLPCPELCPDAVFRLMEQCWAYEPGQRPSFSTIYQELQSIRKRHR
# Biological target: T1, Bovine, dephosphorylated, Myelin Basic Protein (MBP), P02687
# T1 chain: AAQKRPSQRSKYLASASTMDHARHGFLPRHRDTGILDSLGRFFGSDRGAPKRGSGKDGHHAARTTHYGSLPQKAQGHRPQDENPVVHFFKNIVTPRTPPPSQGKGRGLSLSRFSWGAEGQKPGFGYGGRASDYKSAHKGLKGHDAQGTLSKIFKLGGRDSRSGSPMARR
row,Protein,MBP Kinase Activity
1,B1,Weak
2,B2,Negative
3,B3,Weak
4,B4,Strong
5,B5,Negative
6,B6,Strong
7,B7,Strong
8,B8,Negative
9,B9,Negative
